Source: the nanobody polyreactivity screen of Harvey et al. (2022)

Test: yeast display, Sf9 membrane polyspecificity reagent, FACS + sequencing; frameworks hold sequencing errors
Outline: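 After 36–48 hours of galactose induction, yeast (Saccharomyces cerevisiae BJ5465) displaying a synthetic nanobody library were stained at 4 °C for 1 hour with 10% biotinylated, detergent-solubilized Sf9 membrane reagent. Streptavidin microbeads enriched the stained cells before FACS sorting into low and high (top ~1%) gates on anti-HA and streptavidin fluorescence. Each clone's polyreactivity label reflects its gate of origin.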
With “QVQLVESGGGLVQAGGSLRLSCAASGIIFLENAMGWYRQAPGKERELVAGISSGGNTNYADSVKGRFTISRDNAKNTVYLQMNSLKPEDTALYYCNKFGYHREYDYWGQVTQVTVSS” the “polyreactivity (PSR sort gate)” value was “low polyreactivity”. In the case of “QVQLVESGGGLVQAGGSLRLSCAASGRTFYYAMGWYRQAPGKERELVASITWSGGITTYADSVKGRFTISRDNAKNTVYLQMNSLKPEDTAVYSCAAQVIKGRTYQLGDYWGQGTQVTVSS”, the “polyreactivity (PSR sort gate)” value is reported as “high polyreactivity”. For “QVQLVESGGGLVQAGGSLRLSCDDSGFIFFDYAMGWYRQAPGKEREFVAAISTRGGSTYYADSVKGLFTISRDNAKNTVYLQMNSLKPEDTSVYYCNARTIRPWGENGYWGQGTQVSVSS”, the “polyreactivity (PSR sort gate)” value was “high polyreactivity”. For “QVQLVESGGGLVQAGGSLRLSCAASGNIFVVNAMGWYRQAPGIERELVAAITVSGGSTYYADSVKGRFTISRDNAKNTVYLQMNRLKPEDTAVYYCNAYYWHDNWDIELGKFDYWGQGTQVTVSS”, the “polyreactivity (PSR sort gate)” value was “low polyreactivity”. For “QVQLVESGGGLVQAGGSLRLSCAASGIIFYFYARGWYRQAPGKETELVAANSRGGSTKYADSVKGRFTISRDNAKNTVYLLMYSLKPEDTAFYYCNARVRGVRQGIMDYWGQGTQVSVSS”, the “polyreactivity (PSR sort gate)” value was “high polyreactivity”. In the case of “QVQLVESGGGLVQAGGSLRLSCAASGRIFPWYTMGWYRQAPGKESELVATIRGSGGSTHYADSVKGRFTISRDNAKNTVYLQMNSLKPEDTAVYYCATDRPRYRYQYKFDYWGQGTQVTVSS”, the “polyreactivity (PSR sort gate)” value is reported as “low polyreactivity”. For “QVQLVESGGGLVQAGGSLRLSCAASGRTFYRYAMGWYRQAPGKERELVAAISGSGGRTYYADSVKGRFTISRDNAKNTVYFQMNSLKPEDTAVYYCNAYPHAYTGSTREGDYWGQGTQVTVSS”, the “polyreactivity (PSR sort gate)” value was “high polyreactivity”. With “QVQLVESGGGLVQAGGSLRLSCAASGSTSCSNAMGWSRQAPGKERELVAAITTGASTYYADSVKGRFTISRDNAKNTVYLQMNSLKPEDTAVYYCAADPWVLWSYYYWGQGTQVTVSS” the “polyreactivity (PSR sort gate)” value was “low polyreactivity”. With “QVQLVESGGGLVQAGGSLRLSCAASGFTFRRNAMGWYRQAPGKERELVAAITGRGTGTYYADSVKGRFTISRDNAKNTVYLQMNSLKPEDTAVYYCNADPVRYLFTRYDYWGQGTQVTVSS” the “polyreactivity (PSR sort gate)” value was “high polyreactivity”. In the case of “QVQLVESGGGLVQAGGSLRLSCAASGSTFIGNAMGWYRQAPGKERELVAAISRTGGSTYADSVKGRFTISRDNAKNTVYLQMNSLKPEDTAVYYCAAKYYYIYYYWGQGTQVTVSS”, the “polyreactivity (PSR sort gate)” value is reported as “high polyreactivity”. With “QVQLVESGGGLVQAGGSLRLSCAASGSIFGTNTMGWYRQAPGKEREFVAVITGSTTSTYYADSVKWRFTISRDNANNTVYLQMNSLIPEDTAVYYCADEPGSRSYGGDYWGQGTQVTVSS” the “polyreactivity (PSR sort gate)” value was “high polyreactivity”. In the case of “QVQLVESGGGLVQAGGSLRLSCAASGSIFRVYAMGWYRQAPGKERELVAAISSSGVRTSYADSVKGRFTISRDNAKNTVYLQMNSLKPEDTAVYYCNAAYGRRYDYWGQGTQVTVSS”, the “polyreactivity (PSR sort gate)” value is reported as “high polyreactivity”. In the case of “QVQLVESGGGLVQAGGSLRLSCAASGSIFAYYAMGWYRQAPGKERELVAAITSGDSTYYADSVKGRFTISRDNAKNTVYLQMNSLKPEDSAVYYCAADVSWRSNWYDYWGQGTQVTVSS”, the “polyreactivity (PSR sort gate)” value is reported as “low polyreactivity”. For “QVQLVESGGGLVQAGGSLRLSCAASGSTFIGNAMGWYRQAPGKERELVAAITRSGGSTFYADSVKGRFTISRDNAKNTVYLQMNSLKPEDTAVYYCAARNGAYPALTAGDYWGQGTQVTVSS”, the “polyreactivity (PSR sort gate)” value was “high polyreactivity”. For “QVQLEESVGGLVQAGGSLRISCAASGRTFKLYAMGRKRQAPGKERELVATITRRGGSTYYADSVKGRFTISRDNAKNTVYLQMNSLKPEDTAVYYCASDAIGYYGTYDYWGQGTQVTVSS”, the “polyreactivity (PSR sort gate)” value was “high polyreactivity”. For “QVQLQESCGGLVQAGGSLCLSCAASGTIFFDGDMGWYRQAPGKEREFVAAINPGGSAYYADSVKGRLPLAAITHTVYLQMNSLKPEDTAVYYCAAKLFDVYGYYYWGQGTHVTVSS”, the “polyreactivity (PSR sort gate)” value was “low polyreactivity”. In the case of “QVQLVESGGGLVQAGGSLRLSCAASGRIFRTNAMGWYRQAPGKDRELVAAISRSGGSTYYADSVKGRFTISRDNAKNTVYLQMNSLKPEDTAVYYCATRVGKILTTKYGYWGQGTQVTVSS”, the “polyreactivity (PSR sort gate)” value is reported as “high polyreactivity”. With “QVQLVESAAGLVQAGGSLRLSCAPSGSTFYLYDMGWYRQAPGKEREFVATITSGTSTTYADSVKGRFTISRDNAKNTVYLQMNSLKPEDTAVYYCNATDVGIITVGYGHGGYYWGQGTQVTVSS” the “polyreactivity (PSR sort gate)” value was “low polyreactivity”. With “QVQLVESGGGLVQAGGSLRLSCAASGSTFDDYAMGWYRQAPGKEREFVAAITYGGGNTYYADSVKGRFTISRDNAKNTVYLQMNSLKPEDTAVYYCNKLSRGFSPKYGYWGQGTQVTVSS” the “polyreactivity (PSR sort gate)” value was “high polyreactivity”. In the case of “QVQLVESGGCLVQAGGSLRLSCAASGSIFLYNAMGWYRQAPGKERELVAAIPYSGGRTYYADSVKGRFTISRDNAKNTVSFQMNSLKPEDTAFYYCAVKSFSGHGDYWGQGTQVTVSS”, the “polyreactivity (PSR sort gate)” value is reported as “low polyreactivity”. For “QVQLVESGGGLVQAGGSLRLSCAASGRIFRINAMGWYRQAPGKERELVASITSRAGSTYYADSVKGRFTISRDNAKNTVYLQMNSLKPEDTAVYYCAAASRRGYYYWGQGTQVTVSS”, the “polyreactivity (PSR sort gate)” value was “high polyreactivity”. In the case of “QVQLVESGGGLVQAGGSLRLSCAASGSIFESNGMGWYRPAPGKERELVASISNGDITYYADSVKGRFTISRDNAKNTVYLQMISVKPEYTAVYYCAATLYRNYVIFRYDYWGQGTQLTVSS”, the “polyreactivity (PSR sort gate)” value is reported as “low polyreactivity”. With “QVQLVESGGALVQAGGSVRLSCAASGRTFGTYAMGWYRQAPGKERELVAAISTRGGRTFYADSVKGRFTISRDNAKNTVYLQMNSLKPEDTAVYYCAAYYKYYEYDYWGQVTQVTVSS” the “polyreactivity (PSR sort gate)” value was “high polyreactivity”. In the case of “QVQLVESGGGLVQAGGSLRLSCAASGRTISVYGMGWYRQAPGKERELVASIPWRGGTTYYADSVKGRFTISRDNAKNTVYLQMNSLKPEDTAVYYCAIEPFRFRYYYWGQGTQVTVSS”, the “polyreactivity (PSR sort gate)” value is reported as “high polyreactivity”. In the case of “QVQLVESGGCLVQAGGRLRLSCAASGLTLYKNGMGWYRQAPGKERELVAVISRSGGRTYYADSVKGRFTISRDNAKNTVFLHMNSLKPEDTAVYYCAALQYGPRYTYYYWGQGTQVTVSS”, the “polyreactivity (PSR sort gate)” value is reported as “high polyreactivity”. For “QDQLVESGGGLVQAGGSLRLSCAAYGYTFPWYAMGWYRQAPGKERELVAAISDTGTTNYADSVKGRFTISRDNAKNTVYLQMNSLKPEDTAVYYCNAKVTSYWYYPFNYWGQGTQVTVSS”, the “polyreactivity (PSR sort gate)” value was “low polyreactivity”. For “QVQLVESGGGLVQAGGSLRLSCAATARNFYRYAMAWYRQAPGKERELVARITSAGSTDYADSVKGRFTISRDNAKNTVYLQMNSLKPEDTAVYYCAAFGFSYRTFWYDYWGQGTQVTVSS”, the “polyreactivity (PSR sort gate)” value was “high polyreactivity”. In the case of “QVQLVESVGVLVQAGGSLRLSCAASGSTFSSYAMGWYRPAPGKERELVAVISSRGTSTSYADSVKGRFTISRDNAKNTVYLQMNSLKQEDTAVYYCAASRFRWVQRYDYWGQGTQVTVSS”, the “polyreactivity (PSR sort gate)” value is reported as “high polyreactivity”. For “QVQLVESGGGLVQAGGSLRISCAASGFTFWLYAMGWYRQAPGKERELVATISWSGGSTYYADSVKGRFTISRDNAKNTVYVQMNSLKPEDTAVYYCATRYRSYSVFGYGYWGQGTQVTVSS”, the “polyreactivity (PSR sort gate)” value was “high polyreactivity”. For “QVQLVESGGGLDQAGGSLRLSCAASGSTFDYYARGWYRQAPGKERELVAAISSSGGSTYYADSVKGRFTISRDNANYTVYLQRNSLKPEDTAVYYCNKYGGTLRSDYWGQGTQVTVSS”, the “polyreactivity (PSR sort gate)” value was “high polyreactivity”. In the case of “QVQLVESGGGLVQAGGSLRLSCAASGFIFRYYAMGWSRQAPGKERELVAAISTGGSTHYADSVKGRFTISRDNAKNTVYLQMNSLKPEDTAVYYCAAPRYFRVRYGYWGQGTQVTVSS”, the “polyreactivity (PSR sort gate)” value is reported as “high polyreactivity”. With “QVQLVESGGGLVQAGGSLRLRCAASGYTLTPYTMGWYRQAPGKERELVAAINRSGGSTYYADSVKGRFTISRDNAKNTVYLQMNSLKPEDTAVYYCAAYGYYNFGYYYWGQGTQVTVSS” the “polyreactivity (PSR sort gate)” value was “high polyreactivity”. With “QVQLVESGGGLVQAGGSLRLSCAASGSIFPKNAMGWSRQAPGKVREFVATITKRGGRTYYADSVKGRFTISRDNAKNTVYLQMNSQKPEEPAVYYCARDQGKLVVPYDYWGQGTQLTVSS” the “polyreactivity (PSR sort gate)” value was “high polyreactivity”. With “QVQIVESGGGLVQAGGSLRLSCAASGITFPRYAMGWYRQAPGKESELVATITSRGGSTYYADSVKGRFTISRDNAKNTVYLQMISLKPEDTAVYYFNDRHYIFWSRYDYWGQGTQVTVSS” the “polyreactivity (PSR sort gate)” value was “high polyreactivity”. With “QVQLVESGGGLVQAGGSLRLSCAASGSIFLVYGMGWYRQAPGKERELVAAITSSAGSTYYADSVKGRFTISRDNAKNTVYLQMNSLKPEDTAVYYCAARWAWSTYSYYYWGQGTQVTVSS” the “polyreactivity (PSR sort gate)” value was “high polyreactivity”. With “QVQLVESGGGLVQAGGSLRLSCAASGIIFFLYAMGWNRQAPGKERELVAAISSGGSTYYADSVKGRFTISRDNAKYTVYLQMNSLKPEDTAVYYFIARYWPFRYYYWGQGTQVTVSS” the “polyreactivity (PSR sort gate)” value was “high polyreactivity”. For “QVQLVESGRGLVQAGGSLRLSCAASGITFEYYAMGWYRQAPGKERELVAAIDTGGSTNYADSVKGRFTISRDNAKNTVYLQMNSLKPEDTAVYYCAADWSWWDGEDYHFEYDYWGQGTQVTVSS”, the “polyreactivity (PSR sort gate)” value was “low polyreactivity”. With “QVQLVESGGGLVQAGGSLRLSCAASGFFFGFYAMGWYRQAPGKERELVASISGRGGRTSYADSVKGRFTISRDNAKITVYLQMNSLKPEDTAVYYCNKAGYGVSRKYDYWGQGTQVTVSS” the “polyreactivity (PSR sort gate)” value was “high polyreactivity”. In the case of “QVQLVESGGGLVQAGGSLRLSCAASGRIFRYYAMGWYRQAPGKERELVAAITAGGGTTYYADSVKGRFTISSDNAKNTVYLQMNSLKPEDTAVYYCAKDGRYYSHYNYWGQGTQVTVSS”, the “polyreactivity (PSR sort gate)” value is reported as “high polyreactivity”. For “QVQLVESGGGLVQAGGSLRLSCAASGSIFGYYTMGWYRQAPGKERELVARITRGGSTYYADSVKGRFTISRDNAKNTVYLQMNSLYPEDTSVYYCNAEIWTEGGYWGQGSQVTVSS”, the “polyreactivity (PSR sort gate)” value was “low polyreactivity”. For “QVQLVESGGGLVQAGGSLRLSCAASGRIFYKNVMGWYRQAPGKESELVATITRRGGRTFYADSVKGRFTISRDNAKNTVYLQMNSLKPEDTAVYYCATRRRIRSSFYYDIDYWGQGTQVTVSS”, the “polyreactivity (PSR sort gate)” value was “high polyreactivity”.
